Conditions: Homo sapiens, pH 7.5, Thermal, CD, Tris-HCl 20mM, whole UniProt chain shown

B1: Guanylyl cyclase-activating protein 1 wild type, P43080 (protein)
chain: MGNVMEGKSVEELSSTECHQWYKKFMTECPSGQLTLYEFRQFFGLKNLSPSASQYVEQMFETFDFNKDGYIDFMEYVAALSLVLKGKVEQKLRWYFKLYDVDGNGCIDRDELLTIIQAIRAINPCSDTTMTAEEFTDTVFSKIDVNGDGELSLEEFIEGVQKDQMLLDTLTRSLDLTRIVRRLQNGEQDEEGADEAAEAAG
Tm (KCL 150 mM): 49.8 °C | Tm (KCL and Mg2+ 150 mM and 1 mM): 50.3 °C

Reference: FireProtDB (doi:10.3390/ijms21030752)
